{
  "source": "patent US6534051",
  "key": {"[1]": {"molecular_target": "cell-surface protein expressed on various human cancers (e.g., HeLa and Col-1 cells), antigen of antibody B6.2 (human)", "assay": "cell-based or functional assay"}, "[2]": {"molecular_target": "receptor of ecotropic murine leukemia virus (UniProt Q09143)", "sequence (Q09143 whole entry)": "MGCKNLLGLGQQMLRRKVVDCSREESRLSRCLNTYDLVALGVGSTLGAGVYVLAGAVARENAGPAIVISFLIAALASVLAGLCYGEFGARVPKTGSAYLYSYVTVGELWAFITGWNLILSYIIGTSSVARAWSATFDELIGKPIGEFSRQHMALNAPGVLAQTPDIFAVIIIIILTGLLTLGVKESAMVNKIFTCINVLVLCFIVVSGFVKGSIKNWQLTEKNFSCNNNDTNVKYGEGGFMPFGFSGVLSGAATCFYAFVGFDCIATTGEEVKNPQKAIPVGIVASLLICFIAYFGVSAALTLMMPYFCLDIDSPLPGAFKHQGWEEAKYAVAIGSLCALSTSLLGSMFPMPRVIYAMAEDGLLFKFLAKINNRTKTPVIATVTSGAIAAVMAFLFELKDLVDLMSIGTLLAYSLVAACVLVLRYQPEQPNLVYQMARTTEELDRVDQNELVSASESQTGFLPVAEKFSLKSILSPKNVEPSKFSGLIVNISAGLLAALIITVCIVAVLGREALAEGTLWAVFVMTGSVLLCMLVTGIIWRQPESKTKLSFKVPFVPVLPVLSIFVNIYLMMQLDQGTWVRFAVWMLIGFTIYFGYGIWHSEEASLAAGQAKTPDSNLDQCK", "assay": "cell-based or functional assay"}},
  "data": [
    {"substance": "TC26 targeting envelope: B6.2 single chain antibody fused to the SNV envelope at codon 168 (167 in the legend of FIG. 6) (scFv)", "values": [
      {"measurement": "Titer (CFU/ml) on COL-1, particles with TC26 + wt-env", "setting": "[1]", "value": 45, "unit": "CFU/ml"},
      {"measurement": "Titer (CFU/ml) on HeLa, particles with TC26 + wt-env", "setting": "[1]", "value": 90, "unit": "CFU/ml"},
      {"measurement": "Titer (CFU/ml) on HeLa, particles with TC26 alone", "setting": "[1]", "value": 10, "unit": "CFU/ml"}
    ]},
    {"substance": "TC25 targeting envelope: B6.2 single chain antibody fused to carboxy terminal part of the SNV envelope (same amount of SNV envelope as pTC5) (scFv)", "values": [
      {"measurement": "Titer (CFU/ml) on COL-1, particles with TC25 + wt-env", "setting": "[1]", "value": 55, "unit": "CFU/ml"},
      {"measurement": "Titer (CFU/ml) on HeLa, particles with TC25 + wt-env", "setting": "[1]", "value": 100, "unit": "CFU/ml"},
      {"measurement": "Titer (CFU/ml) on HeLa, particles with TC25 alone", "setting": "[1]", "value": 20, "unit": "CFU/ml"}
    ]},
    {"substance": "TC24 targeting envelope: B6.2 single chain antibody fused to carboxy terminal part of the SNV envelope (same amount of SNV envelope as pTC4) (scFv)", "values": [
      {"measurement": "Titer (CFU/ml) on COL-1, particles with TC24 + wt-env", "setting": "[1]", "value": 115, "unit": "CFU/ml"},
      {"measurement": "Titer (CFU/ml) on HeLa, particles with TC24 + wt-env", "setting": "[1]", "value": 250, "unit": "CFU/ml"},
      {"measurement": "Titer (CFU/ml) on HeLa, particles with TC24 alone", "setting": "[1]", "value": 5, "unit": "CFU/ml"}
    ]},
    {"substance": "SNV-MLV-chiC targeting envelope: almost complete SU peptide of ecotropic murine leukemia virus fused to carboxy terminal part of the SNV envelope (as in pTC4)", "values": [
      {"measurement": "Virus titer (cfu/ml) on CHTG cells, particles with MLV-SNV-chiC + wt SNV", "setting": "[2]", "value": 1000, "unit": "cfu/ml"}
    ]},
    {"substance": "SNV-MLV-chiD targeting envelope: almost complete SU peptide of ecotropic murine leukemia virus fused to carboxy terminal part of the SNV envelope (as in pTC5)", "values": [
      {"measurement": "Virus titer (cfu/ml) on CHTG cells, particles with MLV-SNV-chiD + wt SNV", "setting": "[2]", "value": 1000, "unit": "cfu/ml"}
    ]}
  ]
}
